Laboratory results: paper PMC6220978, “Induced conformational changes activate the peptidoglycan synthase PBP1B” (Molecular Microbiology, 2018)
Changes are numbered by the printed parent chain.

Experiments:
Assay in all cases: SPR; reducing conditions: 2 mM TCEP in the SPR running buffer, immobilised PBP1B versions incubated in it for 30 min before the assay; LpoB injected from 19.5 nM to 10 μM; apparent KD
Conditions in all cases: both partners purified
PBP1B R157A = target: T1, PBP1B R157A (E. coli, UniProt P02919 46-844, R157A)
T1 construct: PBP1B, E. coli, residues 46-844, made by mutagenesis of pDML924; source: E. coli BL21(DE3), purified (membrane extract, HisTrap, thrombin, HiTrap SP ion exchange)
T1 sequence (looked up): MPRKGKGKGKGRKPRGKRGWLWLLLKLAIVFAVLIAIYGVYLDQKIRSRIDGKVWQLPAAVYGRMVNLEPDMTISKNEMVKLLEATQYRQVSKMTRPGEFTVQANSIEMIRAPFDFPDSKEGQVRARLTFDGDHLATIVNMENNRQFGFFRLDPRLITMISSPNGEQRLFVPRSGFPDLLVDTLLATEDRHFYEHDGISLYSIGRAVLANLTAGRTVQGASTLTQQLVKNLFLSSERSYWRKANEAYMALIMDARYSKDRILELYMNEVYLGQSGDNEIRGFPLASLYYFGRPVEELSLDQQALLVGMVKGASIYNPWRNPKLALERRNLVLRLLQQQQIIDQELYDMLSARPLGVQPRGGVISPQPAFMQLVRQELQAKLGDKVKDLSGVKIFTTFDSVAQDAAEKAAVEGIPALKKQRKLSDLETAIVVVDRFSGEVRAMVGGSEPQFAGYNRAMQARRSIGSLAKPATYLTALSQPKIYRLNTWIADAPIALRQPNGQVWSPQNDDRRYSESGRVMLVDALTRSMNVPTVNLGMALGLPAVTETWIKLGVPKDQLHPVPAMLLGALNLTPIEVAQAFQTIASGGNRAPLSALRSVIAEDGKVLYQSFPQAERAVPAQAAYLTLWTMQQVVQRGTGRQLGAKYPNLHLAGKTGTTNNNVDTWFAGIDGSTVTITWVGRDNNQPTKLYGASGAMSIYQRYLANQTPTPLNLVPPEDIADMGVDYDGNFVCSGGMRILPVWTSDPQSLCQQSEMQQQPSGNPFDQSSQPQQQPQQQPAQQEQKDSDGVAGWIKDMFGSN

PBP1B I202F = target: T2, PBP1B I202F (E. coli, UniProt P02919 46-844, I202F)
T2 construct: PBP1B, E. coli, residues 46-844, made by mutagenesis of pDML924; Substitution first found in the suppressor screen of Markovski et al. 2016 (LpoB bypass); source: E. coli BL21(DE3), purified (membrane extract, HisTrap, thrombin, HiTrap SP ion exchange)
T2 sequence (looked up): T1 sequence (looked up) with A112R, I157F

PBP1B D160C/K437C = target: T3, PBP1B D160C/K437C (E. coli, UniProt P02919 46-844, D160C | K437C)
T3 construct: PBP1B, E. coli, residues 46-844, made by mutagenesis of pDML924; Disulphide bridge between C160 and C437 (no free thiol groups detected); reduced in the SPR assay with 2 mM TCEP; source: E. coli BL21(DE3), purified (membrane extract, HisTrap, thrombin, HiTrap SP ion exchange)
T3 sequence (looked up): T1 sequence (looked up) with A112R, D115C, K392C

Kd (PBP1B R157A): 357 nM
Kd (PBP1B I202F): 17 nM
Kd (PBP1B D160C/K437C): 2040 nM
B1: LpoB (natural protein, E. coli)
chain: VGQREPAPVEEVKPAPEQPAEPQQPVPTVPSVPTIPQQPGPIEHEDQTAPPAPHIRHYDWNGAMQPMVSKMLGADGVTAGSVLLVDSVNNRTNGSLNAAEATETLRNALANNGKFTLVSAQQLSMAKQQLGLSPQDSLGTRSKAIGIARNVGAHYVLYSSASGNVNAPTLQMQLMLVQTGEIIWSGKGAVSQQ
notes: LpoB, E. coli; also called lipoprotein LpoB; source: E. coli BL21(DE3), purified (HisTrap, Superdex 200), as in Egan et al. 2014
